This note sets out measurements from patent publication US8357523B2, “Beta-glucosidase variant enzymes and related polynucleotides” (Codexis, Inc., priority 2009, dated 2013).

The labels stand for the following.
B1: 152 (protein)
chain: STAIAQEGAAPAAILHPEKWPRPATQRLIDPAVEKRVDALLKQLSVEEKVGQVIQGDIGTITPEDLRKYPLGSILAGGDSGPNGDDRAPPKEWLDLADAFYRVSLEKRPGHTPIPVLFGIDAVHGHGNIGSATIFPHNIALGATRDPELLRRIGEVTAQEMAATGIDWTFAPALSVVRDDRWGRTYEGFSEDPEIVAAYSPAIVEGVQGKYGSKDFMAPGRAVACAKHFLADGGTDQGRDQGDARISEDELIRIHNAGYPPAIDAGVLTVMASFSSWQGIKHHGHKQLLTDVLKGQMGFNGFIVGDWNAHDQVPGCTKFNCPTSLIAGLDMYMAADSWKQLYENTLAQVKDGTIPMARLDDAVRRILRVKVLAGLFEKPAPKDRPGLPGLETLGSPEHRAVGREAVRKSLVLLKNDKGTLPLSPKARVLVAGDGADNIGKQSGGWTISWQGTGNRNDEFPGATSILGGIRDAVADAGGSVEFDVAGQYKTKPDVAIVVFGEEPYAEFQGDVETLEYQPDQKQDLALLKKLKDQGIPVVAVFLSGRPMWVNPELNASDAFVAAWLPGTEGGGVADVLFTDKAGKVQHDFAGKLSYSWPRTAAQTTVNRGDADYNPLFAYGYGLTYKDKSKVGTLPEESGVPAEARQNAGIYFRAGALRLPGRFL
B2: 153 (protein)
chain: STAIAQEGAAPAAILHPEKWPRPATQRLIDPAVEKRVDALLKQLSVEEKVGQVIQGDIGTITPEDLRKYPLGSILAGGDSGPNGDDRAPPKVWLDLADAFYRVSLEKRPGHTPIPVLFGIDAVHGHGKIGSATIFPHNIALGMTRDPELLRRIGEVTAVEMAATGIDWTFAPALSVVRDDRWGRTYEGFSEDPEIVAAYSPAIVEGVQGKYGSKDFMAPGRSVACAKHFLADGGTDQGRDQGDARISEDELIRIHNAGYPPAIDAGVLTVMASFSSWQGIKHHGHKQLLTDVLKGQMGFNGFIVGDWNAHDQVPGCTKFNCPTSLIAGLDMYMAADSWKQLYENTLAQVKDGTIPMARLDDAVRRILRVKVLAGLFEKPAPKDRPGLPGLETLGSPEHRAVGREAVRKSLVLLKNDKGTLPLSPKARVLVAGDGADNIGKQSGGWTISWQGTGNRNDEFPGATSILGGIRDAVADAGGSVEFDVAGQYKTKPDVAIVVFGEEPYAEFQGDVETLEYQPDQKQDLALLKKLKDQGIPVVAVFLSGRPMWVNPELNASDAFVAAWLPGTEGGGVADVLFTDKAGKVQHDFAGKLSYSWPRTAAQTTVNRGDADYNPLFAYGYGLTYKDKSKVGTLPEESGVPAEARQNAGIYFRAGALRLPGRFL
B3: 156 (protein)
chain: STAIAQEGAAPAAILHPEKWPRPATQRLIDPAVEKRVDALLKQLSVEEKVGQVIQGDIGTITPEDLRKYPLGSILAGGDSGPNGDDRAPPKEWLDLADAFYRVSLEKRPGHTPIPVLFGIDAVHGHGKIGSATIFPHNIALGMTRDPELLRRIGEVTAVEMTATGIDWTFAPALSVVRDDRWGRTYEGFSEDPEIVASYSAAIVEGVQGKFGSKDFMAPGRSVACAKHFLADGGTDRGRDQGDARISEDELIRIHNAGYPPAIDAGVLTVMASFSSWQGIKHHGHKQLLTDVLKGQMGFNGFIVGDWNAHDQVPGCTKFNCPTSLIAGLDMYMAADSWKQLYENTLAQVKDGTIPMARLDDAVRRILRVKVLAGLFEKPAPKDRPGLPGLETLGSPEHRAVGREAVRKSLVLLKNDKGTLPLSPKARVLVAGDGADNIGKQSGGWTISWQGTGNRNDEFPGATSILGGIRDAVADAGGSVEFDVAGQYKTKPDVAIVVFGEEPYAEFQGDVETLEYQPDQKQDLALLKKLKDQGIPVVAVFLSGRPMWVNPELNASDAFVAAWLPGTEGGGVADVLFTDKAGKVQHDFAGKLSYSWPRTAAQTTVNRGDADYNPLFAYGYGLTYKDKSKVGTLPEESGVPAEARQNAGIYFRAGALRLPGRFL
B4: 155 (protein)
chain: STAIAQEGAAPAAILHPEKWPRPATQRLIDPAVEKRVDALLKQLSVEEKVGQVIQGDIGTITPEDLRKYPLGSILAGGDSGPNGDDRAPPKEWLDLADAFYRVSLEKRPGHTPIPVLFGIDAVHGHGNIGSATIFPHNIALGATRDPELLRRIGEVTAVEMAATGIDWTFAPALSVVRDDRWGRTYEGFSEDPEIVASYSAAIVEGVQGKFGSKDFMAPGRIVACAKHFLADGGTDQGRDQGDARISEDELIRIHNAGYPPAIDAGVLTVMASFSSWQGIKHHGHKQLLTDVLKGQMGFNGFIVGDWNAHDQVPGCTKFNCPTSLIAGLDMYMAADSWKQLYENTLAQVKDGTIPMARLDDAVRRILRVKVLAGLFEKPAPKDRPGLPGLETLGSPEHRAVGREAVRKSLVLLKNDKGTLPLSPKARVLVAGDGADNIGKQSGGWTISWQGTGNRNDEFPGATSILGGIRDAVADAGGSVEFDVAGQYKTKPDVAIVVFGEEPYAEFQGDVETLEYQPDQKQDLALLKKLKDQGIPVVAVFLSGRPMWVNPELNASDAFVAAWLPGTEGGGVADVLFTDKAGKVQHDFAGKLSYSWPRTAAQTTVNRGDADYNPLFAYGYGLTYKDKSKVGTLPEESGVPAEARQNAGIYFRAGALRLPGRFL
B5: 75 (protein)
chain: STAIAQEGAAPAAILHPEKWPRPATQRLIDPAVEKRVDALLKQLSVEEKVGQVIQGDIGTITPEDLRKYPLGSILAGGNSGPNGDDRAPPKEWLDLADAFYRVSLEKRPGHTPIPVLFGIDAVHGHGNIGSATIFPHNIALGATRDPELLRRIGEVTAVEMAATGIDWTFAPALSVVRDDRWGRTYEGFSEDPEIVAAYSAAIVEGVQGKFGSKDFMAPGRVVASAKHFLADGGTDQGRDQGDARISEDELIRIHNAGYPPAIDAGVLTVMASFSSWQGIKHHGHKQLLTDVLKGQMGFNGFIVGDWNAHDQVPGCTKFNCPTSLIAGLDMYMAADSWKQLYENTLAQVKDGTIPMARLDDAVRRILRVKVLAGLFEKPAPKDRPGLPGLETLGSPEHRAVGREAVRKSLVLLKNDKGTLPLSPKARVLVAGDGADNIGKQSGGWTISWQGTGNRNDEFPGATSILGGIRDAVADAGGSVEFDVAGQYKTKPDVAIVVFGEEPYAEFQGDVETLEYQPDQKQDLALLKKLKDQGIPVVAVFLSGRPMWVNPELNASDAFVAAWLPGTEGGGVADVLFTDKAGKVQHDFAGKLSYSWPRTAAQTTVNRGDADYNPLFAYGYGLTYKDKSKVGTLPEESGVPAEARQNAGIYFRAGALRLPGRFL
B6: 154 (protein)
chain: STAIAQEGAAPAAILHPEKWPRPATQRLIDPAVEKRVDALLKQLSVEEKVGQVIQGDIGTITPEDLRKYPLGSILAGGNSGPNGDDRAPPKEWLDLADAFYRVSLEKRPGHTPIPVLFGIDAVHGHGNIGSATIFPHNIALGMTRDPELLRRIGEVTAQEMAATGIDWTFAPALSVVRDDRWGRTYEGFSEDPEIVAAYSPAIVEGVQGKYGSKDFMAPGRAVACAKHILADGGTDQGRDQGDARISEDELIRIHNAGYPPAIDAGVLTVMASFSSWQGIKHHGHKQLLTDVLKGQMGFNGFIVGDWNAHDQVPGCTKFNCPTSLIAGLDMYMAADSWKQLYENTLAQVKDGTIPMARLDDAVRRILRVKVLAGLFEKPAPKDRPGLPGLETLGSPEHRAVGREAVRKSLVLLKNDKGTLPLSPKARVLVAGDGADNIGKQSGGWTISWQGTGNRNDEFPGATSILGGIRDAVADAGGSVEFDVAGQYKTKPDVAIVVFGEEPYAEFQGDVETLEYQPDQKQDLALLKKLKDQGIPVVAVFLSGRPMWVNPELNASDAFVAAWLPGTEGGGVADVLFTDKAGKVQHDFAGKLSYSWPRTAAQTTVNRGDADYNPLFAYGYGLTYKDKSKVGTLPEESGVPAEARQNAGIYFRAGALRLPGRFL
B7: 158 (protein)
chain: STAIAQEGAAPAAILHPEKWPRPATQRLIDPAVEKRVDALLKQLSVEEKVGQVIQGDIGTITPEDLRKYPLGSILAGGDSGPNGDDRAPPKEWLDLADAFYRVSLEKRPGHTPIPVLFGIDAVHGHGNIGSATIFPHNIALGATRDPELLRRIGEVTAVEMAATGTDWTFAPALSVVRDDRWGRTYEGFSEDPEIVASYSAAIVEGVQGKYGSKDFMAPGRIVACAKHFLADGGTDQGRDQGDARISEDELIRIHNAGYPPAIDAGVLTVMASFSSWQGIKHHGHKQLLTDVLKGQMGFNGFIVGDWNAHDQVPGCTKFNCPTSLIAGLDMYMAADSWKQLYENTLAQVKDGTIPMARLDDAVRRILRVKVLAGLFEKPAPKDRPGLPGLETLGSPEHRAVGREAVRKSLVLLKNDKGTLPLSPKARVLVAGDGADNIGKQSGGWTISWQGTGNRNDEFPGATSILGGIRDAVADAGGSVEFDVAGQYKTKPDVAIVVFGEEPYAEFQGDVETLEYQPDQKQDLALLKKLKDQGIPVVAVFLSGRPMWVNPELNASDAFVAAWLPGTEGGGVADVLFTDKAGKVQHDFAGKLSYSWPRTAAQTTVNRGDADYNPLFAYGYGLTYKDKSKVGTLPEESGVPAEARQNAGIYFRAGALRLPGRFL
B8: 76 (protein)
chain: STAIAQEGAAPAAILHPEKWPRPATQRLIDPAVEKRVDALLKQLSVEEKVGQVIQGDIGTITPEDLRKYPLGSILAGGNSGPNGDDRAPPKEWLDLADAFYRVSLEKRPGHTPIPVLFGIDAVHGHGKIGSATIFPHNIALGATRDPELLRRIGEVTAVEMAATGIDWTFAPALSVVRDDRWGRTYEGFSEDPEIVAAYSAAIVEGVQGKFGSKDFMAPGRIVASAKHFLADGGTDQGRDQGDARISEDELIRIHNAGYPPAIDAGVLTVMASFSSWQGIKHHGHKQLLTDVLKGQMGFNGFIVGDWNAHDQVPGCTKFNCPTSLIAGLDMYMAADSWKQLYENTLAQVKDGTIPMARLDDAVRRILRVKVLAGLFEKPAPKDRPGLPGLETLGSPEHRAVGREAVRKSLVLLKNDKGTLPLSPKARVLVAGDGADNIGKQSGGWTISWQGTGNRNDEFPGATSILGGIRDAVADAGGSVEFDVAGQYKTKPDVAIVVFGEEPYAEFQGDVETLEYQPDQKQDLALLKKLKDQGIPVVAVFLSGRPMWVNPELNASDAFVAAWLPGTEGGGVADVLFTDKAGKVQHDFAGKLSYSWPRTAAQTTVNRGDADYNPLFAYGYGLTYKDKSKVGTLPEESGVPAEARQNAGIYFRAGALRLPGRFL

The nature of this data set: High throughput cellobiose assay: fold improvement in cellobiase activity of CelA variants over a control enzyme (Tables 2A-2D, 3, 5, 6, 7). The class given is biochemical. The note with it: 3.3 g/l cellobiose, 55° C. and pH 6.0.
B1: the “Fold improvement over Control Variant No. 5 from Table 2A” value is “+++ (+++ = 6 to 13 fold improvement over control Variant No. 2)”. For B2, the “Fold improvement over Control Variant No. 5 from Table 2A” value is listed as “++ (++ = 1.1 to 6 fold improvement over control Variant No. 2)”. Consider B3, for which the “Fold improvement over Control Variant No. 5 from Table 2A” value was “+++ (+++ = 6 to 13 fold improvement over control Variant No. 2)”.

Take B4: the “Fold improvement over Control Variant No. 5 from Table 2A” value was “+++ (+++ = 6 to 13 fold improvement over control Variant No. 2)”. With B5 the entry was “++ (++ = 1.1 to 6 fold improvement over control Variant No. 2)”. With B6 the entry was “++ (++ = 1.1 to 6 fold improvement over control Variant No. 2)”; with B7, “++ (++ = 1.1 to 6 fold improvement over control Variant No. 2)”; with B8, “++ (++ = 1.1 to 6 fold improvement over control Variant No. 2)”.
